Sequences and labels used below:
B1: TPR 5TU (parent)
chain: GGAUCUUCUCGAUCUAACAAAAAAGACAAAUCUGCCACAAAGCUUGAGAGCAUCUUCGGAUGCAGAGGCGGCAGCCUUCGGUGGCGCGAUAGCGCCAACGUUCUCAACUAUGACACGCAAAACGCGUGCUCCGUUGAAUGGAGUUUAUCAUG

Here are results for 84 variants from the RNAGym collection of RNA variant scans (doi:10.1073/pnas.2313332121).

This sample holds only a part of the variants without activity.

In this data set the parent is B1. As to the kind of experiment: polymerase ribozyme fitness, log enrichment relative to wild type (log ratio); higher = more active; in vitro selection for triplet polymerase activity. The gist of the method: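 For each subunit of a heterodimeric triplet polymerase ribozyme, a mutant library was built by PCR and transcribed, then taken through a single in vitro selection round in triplicate. Selection involved annealing to a biotinylated primer, the partner subunit and triplets, incubation frozen at −7 °C, gel excision of extended constructs, capture on streptavidin beads and RT-PCR. Genotypes were retained after Illumina sequencing of inputs and outputs only with ≥10 input reads and ≥1 read in each output. Fitness is defined as the logarithm of a genotype's enrichment relative to wild-type enrichment, using inverse-variance-weighted averages across replicates, with the logarithm taken to base 2.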
As to C51U C93G C116U G141A, the “polymerase ribozyme fitness (log ratio)” value was -3.75.
The same measure for G50A C75U G83U C93U G141A: not above -4.2.
On to A49U G68C, for which the “polymerase ribozyme fitness (log ratio)” value is not above -4.2.
Consider A52G A106G G143A, for which the “polymerase ribozyme fitness (log ratio)” value was -0.542.
The value for A52C G84A U130C was -0.715; that for G50U C54G was -1.98; that for C51U U55A C75A C85U U101A C114U A115G G124A was not above -4.2.
The value for G50A U56A G88C A106G was not above -4.2.
In the case of G50A A98U G126A, the “polymerase ribozyme fitness (log ratio)” value was -1.26.
The same measure for G50A U55A: -1.34; for A52C U56A C96A A110G: -3.99.
The same measure for G50A A64G: -3.77; for C51U G124A G133C G140A A150G: not above -4.2; for G50A C118U A122G A137G A147U: -2.53.
The value for G50U A60U C76A G80U U101G A107U was not above -4.2; that for C51U G58C G62U C69U C96G was -3.67; that for A52C G88A was -3.57.
On to A52C U61A G65A C95A G141U, for which the “polymerase ribozyme fitness (log ratio)” value is -2.36.
The value for C51A A52G G68A A142C U144A was not above -4.2.
As for G50C G83C G88U U146A, the “polymerase ribozyme fitness (log ratio)” value is not above -4.2.
In the case of C51U G58U U82G C96U, the “polymerase ribozyme fitness (log ratio)” value was -0.59.
The same measure for C51U C63U G83C U151C: not above -4.2; for A52C C93U U102G: not above -4.2.
The value for G50A C93U A142U was -3.71; that for A52C C57U U102G U146G was not above -4.2; that for G50C C87G was not above -4.2.
The value for G50C C54U C87A U135C U144C was not above -4.2; that for G50A G84U A147U was -1.53; that for C51G U53A G83C C118U G128A was not above -4.2.
Consider C51A A89C C93U G117U A137U A150C, for which the “polymerase ribozyme fitness (log ratio)” value is not above -4.2.
The same measure for G50A C54U U56A G70A C87G U90A C95G U109G C114G G141U: not above -4.2; for C51G A60G: -1.74; for C51A U61A C95U: -2.06.
The value for G50U C57G was 0.0255; that for G50C C87U A113C C116A G143U U145C was not above -4.2.
Regarding G50C A98G, the “polymerase ribozyme fitness (log ratio)” value is -3.37.
Take C51A C72U G74C C93A G141A: the “polymerase ribozyme fitness (log ratio)” value was not above -4.2.
The same measure for G50A C75U A91U A150C: not above -4.2; for G50U A73U G84A U109G: not above -4.2; for G50C G80C C93A A98U: not above -4.2.
The same measure for G50C A73U G80A G81U C95A G100U U151C: not above -4.2; for A52C C57U: -1.24.
The value for A52C C57G was -1.79; that for G50U A107C C132A was not above -4.2; that for G50C G59U C118U was -2.35.
For G50C G71A C95U G117C G143A, the “polymerase ribozyme fitness (log ratio)” value was not above -4.2.
As to G50A A73U C87A U144A, the “polymerase ribozyme fitness (log ratio)” value is not above -4.2.
The value for G50A C79U A138G was not above -4.2; that for G50U C57A C76A A122U C131G was not above -4.2.
The value for C51U C95A U104C C116G was -0.304; that for C51U C69G G94C U146C was -1.9; that for G50A G94U was -3.07.
The same measure for G50A C57A U127A G143U: -4.04.
A49U G84U A97C G126C A138G A150G: the “polymerase ribozyme fitness (log ratio)” value is not above -4.2.
The value for A52G A66C G84C C85A G126U was not above -4.2; that for A52C G58C C85A was -3.96; that for G50C G86A was not above -4.2.
The same measure for G50C C87U G100A: not above -4.2; for C51U C103A: -1.29.
As for A52C A73G G84U A115G C123G G124C C129A, the “polymerase ribozyme fitness (log ratio)” value is not above -4.2.
The same measure for A52C A73G A138G: not above -4.2; for G50A U56A C87U G124A: -2.44; for A52C C93U G94C: -3.36.
The value for A52G C57A A73U was -0.666; that for G50A C125A was -1.79; that for C51A U55G C95U C105A G117U was not above -4.2.
The same measure for C51U G86C: -2.98; for G50C A89G C99U A122G: not above -4.2; for G50U C87U: -1.51.
Take G50A A73U C96G A98U A120U A137G: the “polymerase ribozyme fitness (log ratio)” value is not above -4.2.
As to C51A G92U, the “polymerase ribozyme fitness (log ratio)” value was -1.06.
The value for A52C C54U was -1.87; that for G50A U55A A91U U135C was not above -4.2.
As to G50U U61A C93G C105U A107G, the “polymerase ribozyme fitness (log ratio)” value was not above -4.2.
The value for C51G G80A G84U G140C was not above -4.2; that for A52C C57U G86U C99U C118U C125G G143A U151A was not above -4.2.
Take A49U A66G G84A C87U A98G: the “polymerase ribozyme fitness (log ratio)” value is not above -4.2.
The value for C51A C118U G152A was -3.06; that for A49U G59A A122U was -0.783; that for A52C G152U was -3.45.
C51G G136U U144G: the “polymerase ribozyme fitness (log ratio)” value was -2.56.
Take C51A C96U: the “polymerase ribozyme fitness (log ratio)” value was -1.91.
The value for C51U C85G A106G was -2.8.
The same measure for C51U A52G C76A A89G A97C C105U A119C G141U: not above -4.2.
